Measured values from publication PMC3280215.

Assays:
[1] = target: engineered outer domain mini-V3 (glycosylated gp120 outer domain construct containing a truncated V3 loop) (HIV-1)
[2] = target: soluble, partially deglycosylated 664G Env trimer (HIV-1); assay: negative-stain EM reconstruction

Binder | Kd [1] | fold less than the interaction with m8 [1] | stoichiometry N [2]
PGT 128 (format not stated for the experiment) (antibody, V domains shown) VH: QPQLQESGPTLVEASETLSLTCAVSGDSTAACNSFWGWVRQPPGKGLEWVGSLSHCASYWNRGWTYHNPSLKSRLTLALDTPKNLVFLKLNSVTAADTATYYCARFGGEVLRYTDWPKPAWVDLWGRGTLVTVSS VL: QSALTQPPSASGSPGQSITISCTGTSNNFVSWYQQHAGKAPKLVIYDVNKRPSGVPDRFSGSKSGNTASLTVSGLQTDDEAVYYCGSLVGNWDVIFGGGTKLTVL | 46 nM | 8 fold | 
Fab PGT 128 (Fab, V domains shown) VH: QPQLQESGPTLVEASETLSLTCAVSGDSTAACNSFWGWVRQPPGKGLEWVGSLSHCASYWNRGWTYHNPSLKSRLTLALDTPKNLVFLKLNSVTAADTATYYCARFGGEVLRYTDWPKPAWVDLWGRGTLVTVSS VL: QSALTQPPSASGSPGQSITISCTGTSNNFVSWYQQHAGKAPKLVIYDVNKRPSGVPDRFSGSKSGNTASLTVSGLQTDDEAVYYCGSLVGNWDVIFGGGTKLTVL |  |  | 3
